Experimental data as given in publication PMC7561547 (2020).

Molecular target: FGFR2b (Homo sapiens, UniProt P21802)
Experiment: SPR

Kd: 0.58 nM
B1: bemarituzumab (antibody, V domains shown)
VH: QVQLVQSGAEVKKPGSSVKVSCKASGYIFTTYNVHWVRQAPGQGLEWIGSIYPDNGDTSYNQNFKGRATITADKSTSTAYMELSSLRSEDTAVYYCARGDFAYWGQGTLVTVSS
VL: DIQMTQSPSSLSASVGDRVTITCKASQGVSNDVAWYQQKPGKAPKLLIYSASYRYTGVPSRFSGSGSGTDFTFTISSLQPEDIATYYCQQHSTTPYTFGQGTKLEIKR
